How the values were obtained:
Assay in all cases: Phage ELISA: binding of peptide-displaying phage to wild-type or alanine-substituted b-βγ
Set-up in all cases: species or system rat
Gβ1γ2 (Gβ1 mutants) [1] = target: T1, Gβ1γ2 (Gβ1 mutants) (UniProt P54311+P63212, D186A); details: Gβ1 Asp186Ala; mean ± SD
T1 construct: made in house; host or cells: Sf9 insect cells (baculovirus), partially purified via (His)6-Gαi1 on Ni-NTA
Description: (§1) Wild-type Gβ1 and Gp1 mutants were made in the baculovirus vector PDW464 which encodes a biotinylation site at a lysine upstream of the amino terminus of Gβ1 (Goubaeva, et al. (2003) supra). Mutants were generated by overlap extension PCR using standard protocols. The wild-type and mutant Gβ1 constructs consisted of a 20 amino acid biotin acceptor peptide (BAP) sequence fused in-frame with the amino-terminus of rat Gβ1 subunit. When coexpressed with biotin holoenzyme synthetase (BirA) in Sf9 cells, the Gβ1 subunit becomes covalently biotinylated in vivo at the specific lysine acceptor residue in the BAP. Using this approach, 1-2 mg protein of purified protein can be obtained per liter of Sf9 insect cells. As 45 ng of protein is used in the phage ELISA assay, a single purification is sufficient for 10,000 to 30,000 binding assays.
(§2) Phage ELISA assays used to assess peptide binding to wild-type and mutant b-βγ were performed according to standard methods (Smrcka and Scott (2002) Methods Enzymol. 344:557-76). Briefly, 1 μg streptavidin was immobilized in the well of a […] overnight at 4° C. The wells were blocked with 100 μL of 2% bovine serum albumin (BSA) in Tris-buffered saline (TBS) for 1 hour at 4° C. followed by three washes of IX TBS/0.5% TWEEN®. Forty μL of 25 nM bGβ1γ2 in TBS/0.5% TWEEN® was added to each well and incubated at 4° C. for 1.5 hour. The wells were washed, followed by the addition of IxIO^6 to IxIO^10 phage particles and incubated at 4° C. for 3 hours. The wells were then washed six times with TBS/0.5% TWEEN® followed by addition of 40 μL of 1:5000 dilution of anti-M13 antibody (Pharmacia, Uppsala, Sweden) and incubated at room temperature for 1 hour. The wells were washed, followed by the addition of 40 μL of (2,2′-Azino-bis (3-ethylbenzthiazoline)-6-sulfonic acid (ABTS) and the colorimetric reaction was monitored at 405 nm. Nonspecific binding was subtracted for each reading.
(§3) The nine peptides were selected to represent the different consensus groups of peptides previously identified (See Scott et al. (2001) supra; Table 15) and to compare binding characteristics within and between consensus groups. […] As disclosed herein, the binding signal obtained in the ELISA assay was correlated to a loss in affinity by comparing the results to behavior of the peptide in a solution based assay. […] For the purposes of present disclosure, any substitution that decreased the binding to less than 20% of the wild-type binding was considered to be a critical binding contact for that peptide.

Gβ1γ2 (Gβ1 mutants) [2] = target: T2, Gβ1γ2 (Gβ1 mutants) (UniProt P54311+P63212, D246S); details: Gβ1 Asp246Ser; mean ± SD
T2 construct: made in house; host or cells: Sf9 insect cells (baculovirus), partially purified via (His)6-Gαi1 on Ni-NTA
Description: as §1, §2, §3

Gβ1γ2 (Gβ1 mutants) [3] = target: T3, Gβ1γ2 (Gβ1 mutants) (UniProt P54311+P63212, H311A); details: Gβ1 His311Ala; mean ± SD
T3 construct: made in house; host or cells: Sf9 insect cells (baculovirus), partially purified via (His)6-Gαi1 on Ni-NTA
Description: as §1, §2, §3

Gβ1γ2 (Gβ1 mutants) [4] = target: T4, Gβ1γ2 (Gβ1 mutants) (UniProt P54311+P63212, K57A); details: Gβ1 Lys57Ala; mean ± SD
T4 construct: made in house; host or cells: Sf9 insect cells (baculovirus), partially purified via (His)6-Gαi1 on Ni-NTA
Description: as §1, §2, §3

Gβ1γ2 (Gβ1 mutants) [5] = target: T5, Gβ1γ2 (Gβ1 mutants) (UniProt P54311+P63212, L117A); details: Gβ1 Leu117Ala; mean ± SD
T5 construct: made in house; host or cells: Sf9 insect cells (baculovirus), partially purified via (His)6-Gαi1 on Ni-NTA
Description: as §1, §2, §3

Gβ1γ2 (Gβ1 mutants) [6] = target: T6, Gβ1γ2 (Gβ1 mutants) (UniProt P54311+P63212, M101A); details: Gβ1 Met101Ala; mean ± SD
T6 construct: made in house; host or cells: Sf9 insect cells (baculovirus), partially purified via (His)6-Gαi1 on Ni-NTA
Description: as §1, §2, §3

Gβ1γ2 (Gβ1 mutants) [7] = target: T7, Gβ1γ2 (Gβ1 mutants) (UniProt P54311+P63212, M188A); details: Gβ1 Met188Ala; mean ± SD
T7 construct: made in house; host or cells: Sf9 insect cells (baculovirus), partially purified via (His)6-Gαi1 on Ni-NTA
Description: as §1, §2, §3

Gβ1γ2 (Gβ1 mutants) [8] = target: T8, Gβ1γ2 (Gβ1 mutants) (UniProt P54311+P63212, N230A); details: Gβ1 Asn230Ala; mean ± SD
T8 construct: made in house; host or cells: Sf9 insect cells (baculovirus), partially purified via (His)6-Gαi1 on Ni-NTA
Description: as §1, §2, §3

Gβ1γ2 (Gβ1 mutants) [9] = target: T9, Gβ1γ2 (Gβ1 mutants) (UniProt P54311+P63212, R314A); details: Gβ1 Arg314Ala; mean ± SD
T9 construct: made in house; host or cells: Sf9 insect cells (baculovirus), partially purified via (His)6-Gαi1 on Ni-NTA
Description: as §1, §2, §3

Gβ1γ2 (Gβ1 mutants) [10] = target: T10, Gβ1γ2 (Gβ1 mutants) (UniProt P54311+P63212, W332A); details: Gβ1 Trp332Ala; mean ± SD
T10 construct: made in house; host or cells: Sf9 insect cells (baculovirus), partially purified via (His)6-Gαi1 on Ni-NTA
Description: as §1, §2, §3

Gβ1γ2 (Gβ1 mutants) [11] = target: T11, Gβ1γ2 (Gβ1 mutants) (UniProt P54311+P63212, W99A); details: Gβ1 Trp99Ala; mean ± SD
T11 construct: made in house; host or cells: Sf9 insect cells (baculovirus), partially purified via (His)6-Gαi1 on Ni-NTA
Description: as §1, §2, §3

Gβ1γ2 (Gβ1 mutants) [12] = target: T12, Gβ1γ2 (Gβ1 mutants) (UniProt P54311+P63212, Y145A); details: Gβ1 Tyr145Ala; mean ± SD
T12 construct: made in house; host or cells: Sf9 insect cells (baculovirus), partially purified via (His)6-Gαi1 on Ni-NTA
Description: as §1, §2, §3

Gβ1γ2 (Gβ1 mutants) [13] = target: T13, Gβ1γ2 (Gβ1 mutants) (UniProt P54311+P63212, Y59A); details: Gβ1 Tyr59Ala; mean ± SD
T13 construct: made in house; host or cells: Sf9 insect cells (baculovirus), partially purified via (His)6-Gαi1 on Ni-NTA
Description: as §1, §2, §3

Sequence	% of Wild-Type Signal (Gβ1γ2 (Gβ1 mutants) [1]) [%]	% of Wild-Type Signal (Gβ1γ2 (Gβ1 mutants) [2]) [%]	% of Wild-Type Signal (Gβ1γ2 (Gβ1 mutants) [3]) [%]	% of Wild-Type Signal (Gβ1γ2 (Gβ1 mutants) [4]) [%]	% of Wild-Type Signal (Gβ1γ2 (Gβ1 mutants) [5]) [%]	% of Wild-Type Signal (Gβ1γ2 (Gβ1 mutants) [6]) [%]	% of Wild-Type Signal (Gβ1γ2 (Gβ1 mutants) [7]) [%]	% of Wild-Type Signal (Gβ1γ2 (Gβ1 mutants) [8]) [%]	% of Wild-Type Signal (Gβ1γ2 (Gβ1 mutants) [9]) [%]	% of Wild-Type Signal (Gβ1γ2 (Gβ1 mutants) [10]) [%]	% of Wild-Type Signal (Gβ1γ2 (Gβ1 mutants) [11]) [%]	% of Wild-Type Signal (Gβ1γ2 (Gβ1 mutants) [12]) [%]	% of Wild-Type Signal (Gβ1γ2 (Gβ1 mutants) [13]) [%]
SCARFFGTPGCT [Compound C8]	124.9 ± 29.1	60.8 ± 14.4	51.6 ± 13.2	14.2 ± 9.8	24.7 ± 12.5	23.6 ± 8.5	122.6 ± 26.2	74.8 ± 14.8	20.8 ± 11.1	0.7 ± 2.4	−0.8 ± 2.7	17.5 ± 7.8	4.0 ± 6.2
SCEKRLGVRSCT (phage-displayed) [Compound C5]	45.7 ± 5.2	56.3 ± 4.1	58.7 ± 14.4	5.6 ± 5.3	28.5 ± 5.2	47.8 ± 18.9	97.2 ± 14.2	33.5 ± 7.2	76.5 ± 6.7	3.2 ± 3.7	39.0 ± 3.8	16.7 ± 4.8	73.8 ± 16.6
SCEKRYGIEFCT [Compound C4]	51.3 ± 15.0	35.8 ± 7.4	36.5 ± 8.3	−0.2 ± 1.9	18.4 ± 7.1	61.2 ± 30.9	127.5 ± 22.4	11.5 ± 6.0	1.4 ± 1.0	1.7 ± 3.0	67.0 ± 15.2	4.4 ± 3.8	7.6 ± 9.6
SCGHGLKVQSTIGACA [Compound 3C]	35.0 ± 17.2	2.0 ± 2.7	30.5 ± 18.9	3.6 ± 7.5	10 ± 13.3	−4.2 ± 5.5	−5.7 ± 5.6	4.1 ± 4.4	8.3 ± 3.6	−0.3 ± 1.7	−0.5 ± 5.9	2.7 ± 10.5	8.5 ± 6.4
SCKRTKAQILLAPCT [Compound C1]	1.4 ± 1.7	2.3 ± 3.0	3.0 ± 4.0	0.1 ± 1.6	5.2 ± 3.1	70.5 ± 35.3	4.0 ± 3.4	19.8 ± 12.3	2.8 ± 1.6	−0.3 ± 2.5	1.2 ± 2.7	88.0 ± 29.9	0.3 ± 0.7
SIGKALFILGYPDYD [Compound 3.14]	14.4 ± 13.4	66.5 ± 7.5	93.4 ± 21.5	18.6 ± 4.6	2.1 ± 2.4	26.8 ± 12.5	2.5 ± 3.7	22.4 ± 4.2	50.2 ± 5.0	7.1 ± 3.7	66.0 ± 7.7	0.8 ± 0.9	24.7 ± 15.2
WCPPKAMTQLGIKAC [Compound C14]	3.6 ± 1.9	6.3 ± 13.9	6.1 ± 3.4	3.0 ± 5.0	3.8 ± 9.2	1.1 ± 4.9	9.9 ± 3.8	60.0 ± 26.5	3.9 ± 7.9	1.6 ± 2.4	10.1 ± 3.3	1.9 ± 5.9	3.6 ± 2.0
WCPPKLEQWYDGCA [Compound C2]	267.2 ± 40.6	5.9 ± 5.7	11.7 ± 8.0	−1.2 ± 4.5	1.5 ± 5.5	157.1 ± 51.5	−0.7 ± 2.5	0.0 ± 3.3	1.3 ± 3.1	4.7 ± 6.2	−1.0 ± 5.1	4.5 ± 8.1	−1.7 ± 4.8
